These results are taken from paper PMC4228395, “Detrimental effect of the 6 His C-terminal tag on YedY enzymatic activity and influence of the TAT signal sequence on YedY synthesis” (BMC Biochemistry, 2013).

Holding throughout (assay): purified protein
Holding throughout (format): biochemical, Cereibacter sphaeroides
Conditions in all cases: 0.2 mM dithionite-reduced benzyl viologen as electron donor, 100 mM MES pH 6.0, anaerobic

The subject of data set [1] is T1, C[S+](C)[O-].
T1 construct: mature periplasmic enzyme, TAT signal peptide cleaved; N-terminal 6His-TEV site (ENLYFQ) kept; plasmid pSM196 in R. sphaeroides dmsA- strain; monomer; molybdenum cofactor

The test system of data set [2] is T2, C[S+](C)[O-].
T2 construct: mature enzyme expressed without TAT signal peptide; N-terminal 6His-TEV site kept; plasmid pSM181 in R. sphaeroides dmsA- strain

Data set [3] has as its system T3, C[S+](C)[O-].
T3 construct: mature enzyme, TAT signal peptide cleaved; N-terminal 6His tag cut off by TEV protease, GHM left at N-terminus; pSM196 in R. sphaeroides dmsA- strain; monomer

As for “YedY, N-ter tag (+SS) (Cereibacter sphaeroides f. sp. denitrificans)”, in data set [1], the Km turned out to be 71 mM.
Consider “YedY, N-ter tag (-SS) (Cereibacter sphaeroides f. sp. denitrificans)”, for which the Km in data set [2] was determined as 43 ± 6 mM.
Turning to “YedY, No tag (+SS) (Cereibacter sphaeroides f. sp. denitrificans)”, the Km in data set [3] was 61 ± 7 mM.
